Target: UmbC1 (untagged, in the Umb1 particle) (Streptomyces coelicolor A3(2) (endogenous))
Experiment: cryo-EM structure

Work on UmbB1 (natural protein) yielded a stoichiometry N of 5.

Reference: paper doi:10.1101/2023.12.09.570830
